T1: CD27 expressed on the cell surface of HT1080_CD27 cells (human, UniProt P26842 20-260)
T1 sequence (looked up): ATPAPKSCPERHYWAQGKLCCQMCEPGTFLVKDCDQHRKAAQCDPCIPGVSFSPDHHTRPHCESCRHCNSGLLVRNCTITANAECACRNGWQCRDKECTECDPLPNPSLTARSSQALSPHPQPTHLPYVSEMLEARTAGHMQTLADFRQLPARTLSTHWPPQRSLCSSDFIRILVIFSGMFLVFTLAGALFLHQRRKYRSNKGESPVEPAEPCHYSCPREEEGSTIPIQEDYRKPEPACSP

T2: CD27 protein (His-tagged, Sino Biological Inc. 10039-H08B1) (human, UniProt P26842 20-192)
T2 construct: bought protein coated on ELISA plates; also called TNFRSF7; not shown: His tag
T2 sequence (looked up): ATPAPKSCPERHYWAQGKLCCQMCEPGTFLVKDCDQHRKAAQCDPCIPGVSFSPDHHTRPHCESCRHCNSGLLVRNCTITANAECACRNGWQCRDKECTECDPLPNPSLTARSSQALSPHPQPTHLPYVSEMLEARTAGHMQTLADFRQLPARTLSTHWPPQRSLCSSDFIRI


How the values were obtained:
[1] = molecular target: T1, CD27 expressed on the cell surface of …; assay: cell-based or functional assay
[2] = molecular target: T2, CD27 protein (His-tagged, Sino …); assay: ELISA, coated His-tagged CD27; further: test concentration or dose not given here
[3] = molecular target: T1, CD27 expressed on the cell surface of …; assay: cell-based or functional assay; remark: listed apart in the source
[4] = molecular target: T1, CD27 expressed on the cell surface of …; assay: HT1080_CD27 cells, imaging; further: test concentration or dose not given here
Wherever Functional assay Cross-linked by F(ab′)2 fragment IL-8 is given: test concentration or dose not given here.
Wherever Functional assay IL-8 is given: test concentration or dose not given here.

Binder | EC 50 (IL-8 release, cross-linked) [1] [ng/mL] | ELISA [abs. corr.] [2] [abs. corr.] | Functional assay Cross-linked by F(ab′)2 fragment IL-8 [3] [abs. corr.] | Functional assay IL-8 [3] [abs. corr.] | Cellular binding assay [RFU] [4] [RFU]
P018.S.05.A.D06 (antibody, V domains shown, V regions on human Ig constant parts; also called AB27_88) VH: QSVEESGGRLVTPGTPLTLTCTVSGFSLSSYWMSWVRQAPGKGLEWIGFIYGGSGDKYYASWAKGRFAISKTSTTVDLKITSPTTEDTATYFCARGGDGDGTYSSLWGQGTLVTVSS VL: AQVLTQTPSPVSAAVGGTVTISCQSSESVAGKNLAWYQQKPGQPPKVLIYGTSNLASRVPSRFRGSGSGTQFTLTISDLESDDAATYYCQGYYSGGIYGFGGGTEVVVE |  | 2.93 | 1.23 | 0.338 | 323
P018.S.09.A.C02 (antibody, V domains shown, V regions on human Ig constant parts; also called AB27_147) VH: QSVEESGGRLVTPGTPLTLTCTVSGIDLSSYVMSWVRQAPGKGLEWIGYIDYGGTAYYASWAKGRFTISKTSTTVELKITSPTIEDTATYFCARGGYGGYTLVTALWGPGTLVTVSS VL: DIVMTQTPASVSEPVGGTVTIKCQASQSISSYLSWYQQKPGQPPKLLIYSTSTLASGVSSRFKGSGSGTEYTLTISDLESADAATYYCQTYYGGGPFGNGFGGGTEVVVK |  | 2.94 | 1.07 | 0.07 | 323
P018.S.06.A.B01 (antibody, V domains shown, V regions on human Ig constant parts; also called AB27_98) VH: QSLEESGGGLVKPEGSLTLTCTASGFSFSSSYWICWVRQAPGKGLEWIGCIYAGTFSDTFYASWTKGRFTISKTSSTTVTLQMTSLTGADTATYFCARGHYYYTDNYTANGYGRGLTRLDLWGQGTLVTVSS VL: AAVLTQTPSPVSAAVGGTVTISCQASQSVYNNNNLAWYQQKAGQPPKLLIYGASNLESGVPSRFKGSGSGTQFTLTISDLESDDAASYYCAGGYTTSGDNGFGGGTEVVVK |  | 2.94 | 1.18 | 0.106 | 279
P018.S.02.A.B01 (antibody, V domains shown, V regions on human Ig constant parts; also called AB27_29) VH: QSVEESGGRLVTPGTPLTLTCTVSGMDLSSYSMSWVRQAPGEGLEYIGFIGSSGGTYYASWAKGRFTISRTSTTVDLNITSPTTEDTATYFCARMLAGVYTRLDLWGQGTLVTVSS VL: AQVLTQTPSSVSAAVGGTVTINCQASQSISSSYCSWYQQKPGQPPKLLIYKASTLASGVPSRFKGSGSGTQFTLTISDVQSDDAATYYCAGDFIASSGNAFGGGTEVVVK |  | 2.93 | 1.42 | 0.538 | 332

Results, then the binder that gave them:

EC 50 (IL-8 release, cross-linked) [1] [ng/mL] | ELISA [abs. corr.] [2] [abs. corr.] | Functional assay Cross-linked by F(ab′)2 fragment IL-8 [3] [abs. corr.] | Functional assay IL-8 [3] [abs. corr.] | Cellular binding assay [RFU] [4] [RFU] | Binder
122 |  |  |  |  | P018.S.10.A.H02 (antibody, V domains shown) VH: QSLEESGGRLVTPGGSLTLTCTVSGIDLSSYAMGWFRQAPGKGLEYIGIIYSSGSTWFANWVKGRFTISKTSTTVDLKMTSLTTEDTATYFCARYSAADHGDKFKLWGQGTLVTVSS VL: AAVLTQTPSPVSAAVGGTVSISCQSSKNIFDNTRLSWFQQKPGQPPKQLIYGASTLASGVPSRFSGSGSGTQFTLTISGVQSDDAATYYCLGEYSSDSDTSFGGGTEVVVK
 | 2.93 | 1.1 | -0.046 | 266 | P018.S.10.A.C01 (antibody, V domains shown, V regions on human Ig constant parts; also called AB27_170) VH: QSVEESGGRLVTPGTPLTLTCTLSGFSLSNYAMSWVRQAPGKGLEWIGVIYTSGTTHYASWAKGRFTISKTSTTVDLRMTSLTTEDTATYFCARSRYYGSGWGGYYFNLWGQGTLVTVSS VL: DVVMTQTPSPVSAAVGGTVTINCQASEDIYSLLAWYQQKPGQRPKLLIYGASNLESGVPSRFKGSGSGTEYTLTISGVQSADAATYYCHGGTYTGSADINAFGGGTEVVVE
221 |  |  |  |  | P018.S.09.A.C06 (antibody, V domains shown) VH: QSVEESGGRLVTPGTPLTLTCTVSGFSLSTYAMGWVRQAPGKGLEWIGIIYTGGSTYYASWAEGRFTISKTSTTVDLKITSPTPEDTATYFCTRDLGATYDYFDLWGQGTLVTVSS VL: AYDMTQTPASVEVAVGGTVTIKCQASQSISTALAWYQQKPGQRPKLLIYDTSDLASGVPSRFSGSGSGTEFTLTISGVESADAATYYCQQGYRHTNVDNPFGGGTGVVVK

From US20210253725A1 (BIONTECH, published 2021)
